The record followed here is patent publication US20140044735A1 (ISNERM INSTITUT NATIONAL DE LA SANTE ET DE LA RECHERCHE …, published 2014).

In test [1] the target is CD47 on mouse erythrocytes (wild type and SAD transgenic mice) (mouse) (UniProt Q61735). Nature of the test: cell-based or functional assay.
The target is the same in test [2]. The test is described as follows: flow cytometry of fresh mouse erythrocytes stained with the FITC-coupled antibody.
The target of test [3] is T1, CD47 on mouse erythrocytes (wild type and SAD transgenic mice) (mouse, UniProt Q61735 19-303).
T1 sequence (looked up): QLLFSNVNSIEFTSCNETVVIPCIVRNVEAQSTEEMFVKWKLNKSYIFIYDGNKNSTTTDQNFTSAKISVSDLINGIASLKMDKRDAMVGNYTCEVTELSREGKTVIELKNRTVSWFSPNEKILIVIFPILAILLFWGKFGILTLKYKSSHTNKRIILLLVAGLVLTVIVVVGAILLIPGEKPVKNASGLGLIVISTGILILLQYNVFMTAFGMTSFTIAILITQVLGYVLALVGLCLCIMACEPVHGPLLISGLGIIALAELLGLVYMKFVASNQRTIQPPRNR
Nature of the test: cell-based or functional assay.

Where “and” joins values, the source holds several entries; their conditions need not be identical. Equal values may be shown once.

In the case of “Human recombinant TSP1 (thrombospondin-1) (from UniProt P07996 19-1170) (ligand)”, in test [1], the echinocytes among SAD mouse erythrocytes under shear is 50%; the proportion of echinocytes among wild type mouse erythrocytes under shear is > 10 fold and 30%.
“mouse-specific fluoroisothiocyanate (FITC)-coupled anti-CD47 monoclonal antibody (clone mIAP301; BD Biosciences)”: in test [2], the CD47 expression by FACS (percent) was found to be 85%.

B1: 4N1-1 synthetic peptide (RFYVVMWK), TSP1 carboxyterminal peptide (peptide)
peptide: RFYVVMWK
Regarding B1, in test [3], the “MP shedding by SAD mouse erythrocytes” value was determined as 40 fold, the “MP shedding by wild type mouse erythrocytes” value was found to be 16 fold and the “echinocytosis of wild type mouse erythrocytes” value worked out at 2 fold.
